Results as given in paper PMC7456325.

Molecular target: T. suis B ΔC26 (Trichuris suis BCL-2-like protein B, C-terminal truncation) (Trichuris suis)
Assay: MST; Monolith NT.115; protein labelled with NHS RED, unlabelled synthetic peptide diluted in phosphate-buffered saline; 30 min incubation; 25 °C; 40% LED and 40% MST power; three independent experiments, single binding model

Row | Binder | Kd [µM]
1 | SVRAPIRLCDAMFLMCDLFERKFHDR [T. suis protein A BH3 peptide] | > 50
2 | PILPEVNKTALCMRAMGEVFEDRYKT [T. suis protein B BH3 peptide] | > 50
